# Reference: publication PMC10929192, “Hypoxia-activated selectivity-improved anti-PKM2 antibody combined with prodrug TH-302 for potentiated targeting therapy in hepatocellular carcinoma” (International Journal of Biological Sciences, 2024)
# B1: human full-length H103 Ab (anti-PKM2 antibody, IgG1) (antibody, V domains shown)
# VH: QVQLQESGPGLVRPSGTLSLICAVSGDSISSSIWWSWVRQSPGKGLEWIGYIYHNGNTYYNPSLESRVTISVDTSENQFSLKLSSVTAADTAVYYCARGYDSSGYYWTDDRYYFDYWGQGTLVTVSS
# VL: NFMLTQPHSVSESPGKTVTISCTGSSGSIASNYVQWYQQRPGSAPTTVIYEDNQRPPGVPDRFSGSIDSSSNSASLTISALETEDEADYYCQSYDSRNIDVVFGGGTKVTVL
# notes: the first five amino acids were replaced by those of germline IGHV4-4*02; constant region of human IgG1 (from the expression vector pcMV3-H103-H); light chain constant region from the vector pcMV3-H103-L; IgG1; codon optimised; also called parental H103 Ab; parent H103 Ab
# B2: Na2S2O4-cleaved HAP103 Ab (act-HAP103) (antibody, V domains shown)
# VH: QVQLQESGPGLVRPSGTLSLICAVSGDSISSSIWWSWVRQSPGKGLEWIGYIYHNGNTYYNPSLESRVTISVDTSENQFSLKLSSVTAADTAVYYCARGYDSSGYYWTDDRYYFDYWGQGTLVTVSS
# VL: NFMLTQPHSVSESPGKTVTISCTGSSGSIASNYVQWYQQRPGSAPTTVIYEDNQRPPGVPDRFSGSIDSSSNSASLTISALETEDEADYYCQSYDSRNIDVVFGGGTKVTVL
# notes: as the VH of m1; constant region of human IgG1, as in m1; as the VL of m1; as the light chain constant region of m1; IgG1; also called act-HAP103 Ab; act-HAP Ab; source: HAP103 Ab incubated with Na2S2O4 in carbonate buffer pH 8.0 at RT for 2 h, ultrafiltration
# Columns and labels:
# PKM2 Ag in HCC tissues = target: T1, PKM2 Ag in HCC tissues (Homo sapiens (HCC patient tissue), UniProt P14618); test: immunostaining of cells or tissue; IHC on sections of HCC patient specimens; primary Abs 0.1 mg/mL overnight at 4 °C; goat anti-human IgG-HRP; conditions: one partner purified
# T1 construct: M2 splice isoform of pyruvate kinase (PKM2), endogenous in human HCC tissue; source: endogenous, surgical specimens from HCC patients (tissue sections)
# [1] = target: T2, human PKM2 Ag (M2 splice isoform of pyruvate kinase), purified (Homo sapiens, UniProt P14618); test: SPR; human PKM2 Ag (20 µg/mL, sodium acetate buffer, pH 5) on a CM5 chip; serial dilutions of the Abs injected at 20 μL/min, 120 s binding, 300 s dissociation; 1:1 kinetic binding model; Biacore T200; conditions: both partners purified
# T2 construct: M2 splice isoform of pyruvate kinase (PKM2), human; also called purified PKM2 antigen
# [2] = target: T3, PKM2 Ag expressed in HCC cells (HepG2, Huh7) (Homo sapiens (HepG2, Huh7), UniProt P14618); test: flow cytometry on cells; normoxia-cultured HepG2 and Huh7 cells, EDTA-detached, Abs in serum-free medium 1 h at 37 °C; goat anti-human IgG(H+L)-RDM; conditions: one partner purified
# T3 construct: M2 splice isoform of pyruvate kinase (PKM2), endogenous in human HCC cell lines; living cells were incubated with the antibodies at 37 °C; the antibody is said to internalize; also called expressed PKM2 Ag; source: endogenous, HepG2 and Huh7 cells
# T3 sequence (P14618 whole entry, canonical isoform): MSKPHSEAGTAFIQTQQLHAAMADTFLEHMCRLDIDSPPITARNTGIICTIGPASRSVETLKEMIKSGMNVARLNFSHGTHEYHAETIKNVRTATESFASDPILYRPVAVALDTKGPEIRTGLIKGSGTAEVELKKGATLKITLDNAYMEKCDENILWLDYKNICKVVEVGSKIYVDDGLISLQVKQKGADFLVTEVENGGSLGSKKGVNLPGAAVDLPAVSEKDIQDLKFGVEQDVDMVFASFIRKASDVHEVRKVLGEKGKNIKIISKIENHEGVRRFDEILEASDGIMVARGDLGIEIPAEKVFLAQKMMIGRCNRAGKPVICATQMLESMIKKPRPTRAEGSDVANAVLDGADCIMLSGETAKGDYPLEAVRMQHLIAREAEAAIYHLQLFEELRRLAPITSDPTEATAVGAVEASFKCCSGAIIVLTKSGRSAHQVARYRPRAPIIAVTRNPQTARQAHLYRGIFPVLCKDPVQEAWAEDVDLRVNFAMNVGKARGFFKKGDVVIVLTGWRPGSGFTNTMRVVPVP
# T2 sequence (P14618 whole entry, canonical isoform): as above
# T1 sequence (P14618 whole entry, canonical isoform): as above
binding result (PKM2 Ag in HCC tissues),binding result [1],binding result [2],Binder
binds,binds,,B1
binds,binds,binds,B2
